Measurements as given in patent US20230383273.

What was measured:
Assay in all cases: cleavage_in_vitro
[1] = system: T1, OMNI-71 (Hyphobacterium sp. 2ED5); details: PAM NGG; TXTL
T1 sequence: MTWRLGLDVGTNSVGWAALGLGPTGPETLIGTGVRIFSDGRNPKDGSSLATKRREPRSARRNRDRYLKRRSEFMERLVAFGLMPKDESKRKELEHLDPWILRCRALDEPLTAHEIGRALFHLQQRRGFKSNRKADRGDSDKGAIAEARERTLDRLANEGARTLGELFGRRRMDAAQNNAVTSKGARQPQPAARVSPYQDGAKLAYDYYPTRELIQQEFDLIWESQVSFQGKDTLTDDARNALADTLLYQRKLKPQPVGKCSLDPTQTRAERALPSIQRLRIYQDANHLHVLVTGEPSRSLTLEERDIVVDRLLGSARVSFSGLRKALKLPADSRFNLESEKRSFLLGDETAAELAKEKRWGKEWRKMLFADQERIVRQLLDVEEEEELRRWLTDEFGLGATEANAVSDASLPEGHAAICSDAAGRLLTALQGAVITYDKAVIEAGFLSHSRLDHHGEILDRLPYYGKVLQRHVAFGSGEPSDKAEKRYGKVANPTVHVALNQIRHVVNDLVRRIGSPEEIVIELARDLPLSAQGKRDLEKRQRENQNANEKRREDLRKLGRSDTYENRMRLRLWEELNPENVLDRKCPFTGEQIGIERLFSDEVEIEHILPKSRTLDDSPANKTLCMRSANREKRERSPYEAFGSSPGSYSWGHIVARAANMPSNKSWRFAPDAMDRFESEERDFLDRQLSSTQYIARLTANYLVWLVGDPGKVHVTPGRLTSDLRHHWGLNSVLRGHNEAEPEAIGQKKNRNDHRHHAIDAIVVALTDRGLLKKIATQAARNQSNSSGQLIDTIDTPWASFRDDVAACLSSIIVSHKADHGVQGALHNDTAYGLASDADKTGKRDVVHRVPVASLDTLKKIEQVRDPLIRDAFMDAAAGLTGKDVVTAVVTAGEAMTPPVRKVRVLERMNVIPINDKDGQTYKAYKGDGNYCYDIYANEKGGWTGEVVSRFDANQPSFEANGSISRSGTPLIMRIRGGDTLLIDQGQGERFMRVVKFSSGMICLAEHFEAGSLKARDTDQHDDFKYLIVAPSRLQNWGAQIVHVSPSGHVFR

[2] = system: T2, OMNI-56 (Chryseobacterium sp. G0240); details: PAM NNRNGG; TXTL
T2 sequence: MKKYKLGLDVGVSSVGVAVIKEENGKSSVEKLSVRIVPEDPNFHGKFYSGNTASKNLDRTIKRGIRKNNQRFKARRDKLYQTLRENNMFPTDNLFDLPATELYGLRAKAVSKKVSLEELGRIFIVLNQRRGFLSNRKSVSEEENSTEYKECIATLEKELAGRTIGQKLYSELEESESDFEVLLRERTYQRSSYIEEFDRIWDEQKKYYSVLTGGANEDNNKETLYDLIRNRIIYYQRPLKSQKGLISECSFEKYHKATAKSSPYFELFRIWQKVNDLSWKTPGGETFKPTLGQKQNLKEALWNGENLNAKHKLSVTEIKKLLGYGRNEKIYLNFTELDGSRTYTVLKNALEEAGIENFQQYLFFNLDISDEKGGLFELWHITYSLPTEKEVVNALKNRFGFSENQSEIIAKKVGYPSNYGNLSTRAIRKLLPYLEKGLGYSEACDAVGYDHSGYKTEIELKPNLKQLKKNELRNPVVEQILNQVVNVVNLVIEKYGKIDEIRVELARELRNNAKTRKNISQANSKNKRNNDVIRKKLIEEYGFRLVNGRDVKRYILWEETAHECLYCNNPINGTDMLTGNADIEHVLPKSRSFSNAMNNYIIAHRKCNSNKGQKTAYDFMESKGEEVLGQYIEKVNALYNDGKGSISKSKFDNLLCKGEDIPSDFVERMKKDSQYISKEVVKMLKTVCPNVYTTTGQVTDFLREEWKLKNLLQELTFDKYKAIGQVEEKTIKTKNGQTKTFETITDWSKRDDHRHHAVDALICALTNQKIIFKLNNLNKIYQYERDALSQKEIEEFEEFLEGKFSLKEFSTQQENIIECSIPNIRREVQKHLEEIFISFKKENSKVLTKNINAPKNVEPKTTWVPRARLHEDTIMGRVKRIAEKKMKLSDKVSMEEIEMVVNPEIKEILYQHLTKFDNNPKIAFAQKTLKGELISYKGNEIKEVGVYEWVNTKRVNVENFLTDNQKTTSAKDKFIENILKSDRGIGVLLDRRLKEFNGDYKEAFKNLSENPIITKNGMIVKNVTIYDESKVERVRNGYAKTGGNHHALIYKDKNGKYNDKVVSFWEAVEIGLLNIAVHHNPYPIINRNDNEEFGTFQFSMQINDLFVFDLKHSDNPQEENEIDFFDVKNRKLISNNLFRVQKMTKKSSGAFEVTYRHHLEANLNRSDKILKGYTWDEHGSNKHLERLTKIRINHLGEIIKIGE

[3] = system: T3, OMNI-65 (Faecalibacterium sp. An192); details: PAM NNNVTA; TXTL
T3 sequence: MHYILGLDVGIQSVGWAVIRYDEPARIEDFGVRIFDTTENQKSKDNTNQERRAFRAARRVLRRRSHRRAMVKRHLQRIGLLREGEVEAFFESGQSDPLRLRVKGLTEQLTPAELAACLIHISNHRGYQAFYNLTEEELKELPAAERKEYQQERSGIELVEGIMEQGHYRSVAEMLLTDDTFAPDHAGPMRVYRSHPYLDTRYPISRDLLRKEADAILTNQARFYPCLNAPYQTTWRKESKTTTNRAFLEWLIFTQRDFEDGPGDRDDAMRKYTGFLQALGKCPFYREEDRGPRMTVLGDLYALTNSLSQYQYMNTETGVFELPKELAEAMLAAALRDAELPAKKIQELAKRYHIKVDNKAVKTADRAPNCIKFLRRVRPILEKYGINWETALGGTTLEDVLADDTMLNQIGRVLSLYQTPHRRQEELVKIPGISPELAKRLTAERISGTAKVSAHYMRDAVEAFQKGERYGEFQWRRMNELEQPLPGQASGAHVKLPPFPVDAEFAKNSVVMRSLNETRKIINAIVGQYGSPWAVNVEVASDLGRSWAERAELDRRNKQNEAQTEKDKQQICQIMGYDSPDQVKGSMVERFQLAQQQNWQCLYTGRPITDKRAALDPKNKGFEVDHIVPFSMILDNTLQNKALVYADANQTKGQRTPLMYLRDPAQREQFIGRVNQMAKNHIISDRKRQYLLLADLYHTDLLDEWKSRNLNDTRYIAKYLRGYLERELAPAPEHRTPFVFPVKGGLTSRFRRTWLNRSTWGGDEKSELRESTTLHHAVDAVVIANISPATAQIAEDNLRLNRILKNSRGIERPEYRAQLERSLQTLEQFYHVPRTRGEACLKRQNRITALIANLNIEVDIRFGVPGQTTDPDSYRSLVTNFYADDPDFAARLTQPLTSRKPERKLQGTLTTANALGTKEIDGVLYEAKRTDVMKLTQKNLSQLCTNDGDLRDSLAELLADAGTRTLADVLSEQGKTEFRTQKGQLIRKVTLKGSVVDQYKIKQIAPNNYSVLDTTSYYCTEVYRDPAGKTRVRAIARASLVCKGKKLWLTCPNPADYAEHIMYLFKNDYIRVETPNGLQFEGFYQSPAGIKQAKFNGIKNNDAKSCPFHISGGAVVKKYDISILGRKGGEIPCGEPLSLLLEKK

[4] = system: T4, OMNI-58 (Collinsella sp. AM13-34); details: PAM NNNNCCA; TXTL
T4 sequence: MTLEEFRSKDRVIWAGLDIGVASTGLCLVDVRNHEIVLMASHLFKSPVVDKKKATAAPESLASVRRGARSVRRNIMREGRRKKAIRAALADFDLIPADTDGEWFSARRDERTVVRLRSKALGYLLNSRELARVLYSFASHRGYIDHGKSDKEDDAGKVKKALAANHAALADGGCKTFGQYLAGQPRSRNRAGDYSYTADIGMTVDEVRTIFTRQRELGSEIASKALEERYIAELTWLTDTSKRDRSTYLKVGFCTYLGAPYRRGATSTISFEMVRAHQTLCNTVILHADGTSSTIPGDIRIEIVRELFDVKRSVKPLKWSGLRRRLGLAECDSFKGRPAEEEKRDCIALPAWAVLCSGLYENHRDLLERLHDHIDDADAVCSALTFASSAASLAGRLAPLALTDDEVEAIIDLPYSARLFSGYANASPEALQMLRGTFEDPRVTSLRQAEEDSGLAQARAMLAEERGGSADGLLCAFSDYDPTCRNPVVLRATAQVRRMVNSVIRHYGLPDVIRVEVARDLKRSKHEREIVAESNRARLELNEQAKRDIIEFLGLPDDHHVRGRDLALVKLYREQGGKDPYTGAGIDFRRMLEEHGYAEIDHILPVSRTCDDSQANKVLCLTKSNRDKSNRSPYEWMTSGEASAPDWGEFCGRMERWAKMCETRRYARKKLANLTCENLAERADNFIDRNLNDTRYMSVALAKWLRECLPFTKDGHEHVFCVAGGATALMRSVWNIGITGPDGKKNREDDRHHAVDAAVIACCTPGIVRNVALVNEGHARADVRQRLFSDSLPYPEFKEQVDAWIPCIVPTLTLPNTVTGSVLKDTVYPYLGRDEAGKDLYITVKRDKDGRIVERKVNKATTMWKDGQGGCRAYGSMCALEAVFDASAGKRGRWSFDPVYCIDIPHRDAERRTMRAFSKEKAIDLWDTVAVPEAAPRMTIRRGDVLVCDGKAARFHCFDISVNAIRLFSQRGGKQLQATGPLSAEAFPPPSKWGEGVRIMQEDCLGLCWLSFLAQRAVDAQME

Row | Sequence | activity (1-depletion score) [2] | activity (1-depletion score) [3] | activity (1-depletion score) [4] | other results
1 | GGAAGAGCAGAGCCUUGGUCUCGUUCCGGUUGGAGAAAUCUUUCCGGUAACAAGGUUUAGACCACAAAAUGGAACGGCCUCUUCGGGGGUCGUUCUUUUUUU / GGAAGAGCAGAGCCTTGGTCTCNNNNNNNN / NNNNNNNNGAGACCAAGGCTCTGCTCTTCC | – | – | – | activity (1-depletion score) [1]: 0.96
2 | GGAAGAGCAGAGCCUUGGUCUCGUUGUGAAUUGCUUUCAUAAUUUAUUAUCUUCGAAAUUGGAUUAUAAAUUAUGAAAGCAAUUCACAAUAAGGAUUAUUCCGUUGUGAAAACAUUUAAGCCCCCUCGUCUUACCAUACGGGGGAUUUUUU / GGAAGAGCAGAGCCTTGGTCTCNNNNNNNN / NNNNNNNNGAGACCAAGGCTCTGCTCTTCC | 0.69 | – | – | –
3 | GGAAGAGCAGAGCCUUGGUCUCGUUUUGGUUCUCUGAGAAACAGAAGUUCUAAGAUAAGGCUUUACGCCGCAGGGUAUGGUGGUAUCCCAAAUAUUCCACCAUUUGAUUGUAUCUGAAAGCGUCCGGUUCGGGCGCUUUUU / GGAAGAGCAGAGCCTTGGTCTCNNNNNNNN / NNNNNNNNGAGACCAAGGCTCTGCTCTTCC | – | 0.94 | – | –
4 | GGAAGAGCAGAGCCUUGGUCUCGUUUUGGUUCUCUGAUGGGAAACAUCAGAAGUUCUAAGAUAAGGCUUUACGCCGCAGGGUAUGGUGGUAUCCCAAAUAUUCCACCAUUUGAUUGUAUCUGAAAGCGUCCGGUUCGGGCGCUUUUU / GGAAGAGCAGAGCCTTGGTCTCNNNNNNNN / NNNNNNNNGAGACCAAGGCTCTGCTCTTCC | – | 0.94 | – | –
5 | GGAAGAGCAGAGCCUUGGUCUCGCCCUAGCGCGUUGGAAAAGUAACGUUUGGGCAAGAGGGCCCGUUAAAGACGGGUCACUCGCGGAGUAUAUCCCGCAGGGUGCUUUUCGCACUCUGCGGGUGAUCUCCUUUUCCCUCCUUUUUU / GGAAGAGCAGAGCCTTGGTCTCNNNNNNNN / NNNNNNNNGAGACCAAGGCTCTGCTCTTCC | – | – | 0.93 | –
6 | GGAAGAGCAGAGCCUUGGUCUCGUUGUGAAUUGCUUUCGAAAGAAAGCAAUUCACAAUAAGGAUUAUUCCGUUGUGAAAACAUUUAAGCCCCCUCGUCUUACCAUACGGGGGAUUUUUU / GGAAGAGCAGAGCCTTGGTCTCNNNNNNNN / NNNNNNNNGAGACCAAGGCTCTGCTCTTCC | 0.69 | – | – | –
7 | GGAAGAGCAGAGCCUUGGUCUCGCCCUAGCGCGGAAAAACGUUUGGGCAAGAGGGCCCGUUAAAGACGGGUCACUCGCGGAGUAUAUCCCGCAGGGUGCUAUUCGCACUCUGCGGGUGAUCUCCUAUUCCCUCCUUUUUU / GGAAGAGCAGAGCCTTGGTCTCNNNNNNNN / NNNNNNNNGAGACCAAGGCTCTGCTCTTCC | – | – | 0.86 | –
8 | GGAAGAGCAGAGCCUUGGUCUCGUUUUGGUUCUUCUGGAAACAGAAGUUCUAAGAUAAGGCUUUACGCCGCAGGGUAUGGUGGUAUCCCAAAUAUUCCACCAUUUGAUUGUAUCUGAAAGCGUCCGGUUCGGGCGCUUUUU / GGAAGAGCAGAGCCTTGGTCTCNNNNNNNN / NNNNNNNNGAGACCAAGGCTCTGCTCTTCC | – | 0.93 | – | –
9 | GGAAGAGCAGAGCCUUGGUCUCGCCCUAGCGCGGAAAAACGUUUGGGCAAGAGGGCCCGUUAAAGACGGGUCACUCGCGGAGUAUAUCCCGCAGGGUGCUUUUCGCACUCUGCGGGUGAUCUCCUUUUCCCUCCUUUUUU / GGAAGAGCAGAGCCTTGGTCTCNNNNNNNN / NNNNNNNNGAGACCAAGGCTCTGCTCTTCC | – | – | 0.88 | –
10 | GGAAGAGCAGAGCCUUGGUCUCGUUGUGAAUUGCUUUCAAAAUUUAUUAUCUUCGAAAUUGGAUUAUAAAUUUUGAAAGCAAUUCACAAUAAGGAUUAUUCCGUUGUGAAAACAUUUAAGCCCCCUCGUCUUACCAUACGGGGGAUUUUUU / GGAAGAGCAGAGCCTTGGTCTCNNNNNNNN / NNNNNNNNGAGACCAAGGCTCTGCTCTTCC | 0.53 | – | – | –
